Laboratory results published in the Immune Epitope Database (IEDB).

Legend:
HLA-B*40:01 = experiment: IEDB peptide-MHC binding, purified MHC/direct/fluorescence; filed as Kd, often an IC50 or EC50 that approximates it; ≥ and ≤ were set here for values at or beyond the usual limits of such assays
HLA-B*18:01 = experiment: as above
HLA-B*44:02 = experiment: as above; details: source organism: Orthohantavirus andesense
HLA-A*03:01 = experiment: IEDB peptide-MHC binding, purified MHC/competitive/fluorescence; filed as Kd, often an IC50 or EC50 that approximates it; ≥ and ≤ were set here for values at or beyond the usual limits of such assays
HLA-B*15:01 = experiment: as above; details: source organism: Shigella flexneri 5 str. 8401
HLA-B*54:01 = experiment: IEDB peptide-MHC binding, purified MHC/competitive/radioactivity; filed as Kd, often an IC50 or EC50 that approximates it; ≥ and ≤ were set here for values at or beyond the usual limits of such assays
HLA-B*07:02 = experiment: as above
HLA-B*35:01 = experiment: as above
HLA-B*51:01 = experiment: as above
HLA-B*53:01 = experiment: as above
HLA-A*68:02 = experiment: as above
HLA-A*02:03 = experiment: as above
HLA-A*02:01 = experiment: as above
HLA-A*02:06 = experiment: as above
HLA-A*02:02 = experiment: as above
[1] = source organism: Orthohantavirus andesense
[2] = source organism: Mammarenavirus lassaense
[3] = source organism: Vaccinia virus WR
[4] = source organism: Human alphaherpesvirus 2
[5] = source organism: Giardia lamblia ATCC 50803
[6] = source organism: Triticum aestivum
[7] = source organism: Trypanosoma cruzi
[8] = source organism: Orthohantavirus dobravaense
[9] = source organism: SARS coronavirus Tor2

YEGDLRVTF showed a Kd (HLA-B*40:01; [1]) of 8.3 nM, a Kd (HLA-B*18:01; [1]) of no more than 1 nM and a Kd (HLA-B*44:02) of 4300 nM.

For NELQTLPSL, the Kd (HLA-A*03:01; source organism: Shigella flexneri 5 str. 8401) was no less than 20000 nM and the Kd (HLA-B*15:01) was no less than 20000 nM.

MPKDGLKVL was tested, and the Kd (HLA-B*54:01; [2]) was 96.5 nM, the Kd (HLA-B*07:02; [2]) was 802 nM and the Kd (HLA-B*35:01; [2]) was 421 nM. It also gave a Kd (HLA-B*51:01; [2]) of 6530 nM and a Kd (HLA-B*53:01; [2]) of 2320 nM.

Work on APKQVAGTGV yielded a Kd (HLA-B*54:01; [3]) of 266 nM, a Kd (HLA-B*07:02; [3]) of 10.9 nM and a Kd (HLA-B*35:01; [3]) of no less than 69900 nM. The Kd (HLA-B*51:01; [3]) was no less than 61000 nM and the Kd (HLA-B*53:01; [3]) was no less than 69900 nM.

With CPQKKKSQA the Kd (HLA-B*54:01; [3]) was 66.7 nM, the Kd (HLA-B*07:02; [3]) was 105 nM and the Kd (HLA-B*35:01; [3]) was no less than 77400 nM. The Kd (HLA-B*51:01; [3]) was no less than 77500 nM and the Kd (HLA-B*53:01; [3]) was no less than 78200 nM.

For CPFLFLTVL, the Kd (HLA-B*54:01; [2]) was 160 nM, the Kd (HLA-B*07:02; [2]) was 99.5 nM and the Kd (HLA-B*35:01; [2]) was 41.2 nM. The Kd (HLA-B*51:01; [2]) was 746 nM and the Kd (HLA-B*53:01; [2]) was 216 nM.

APAWSRRTL showed a Kd (HLA-B*54:01; [4]) of 5560 nM, a Kd (HLA-B*07:02; [4]) of 0.19 nM and a Kd (HLA-B*35:01; [4]) of 3240 nM. The Kd (HLA-B*51:01; [4]) was no less than 59500 nM and the Kd (HLA-B*53:01; [4]) was 3550 nM.

LMLASSAGK showed a Kd (HLA-A*03:01; [5]) of 7.8 nM.

Sequence ALTSAMLDR has a Kd (HLA-A*03:01; source organism: Yersinia pestis Antiqua) of 38.1 nM.

IPEISSNDNA gave a Kd (HLA-B*54:01; [3]) of 4540 nM, a Kd (HLA-B*07:02; [3]) of no less than 69600 nM and a Kd (HLA-B*35:01; [3]) of no less than 69900 nM. The Kd (HLA-B*51:01; [3]) was no less than 69600 nM and the Kd (HLA-B*53:01; [3]) was 2390 nM.

QPQLPYPQPQL was tested, and the Kd (HLA-B*54:01; [6]) was no less than 63700 nM, the Kd (HLA-B*07:02; [6]) was 9630 nM and the Kd (HLA-B*35:01; [6]) was no less than 40700 nM. It also gave a Kd (HLA-B*51:01; [6]) of 353 nM and a Kd (HLA-B*53:01; [6]) of no less than 63700 nM.

With LPNVQFVDI the Kd (HLA-B*54:01; [3]) was 16.8 nM, the Kd (HLA-B*07:02; [3]) was 2710 nM and the Kd (HLA-B*35:01; [3]) was 234 nM. For the same sequence, the Kd (HLA-B*51:01; [3]) was 32.2 nM and the Kd (HLA-B*53:01; [3]) was 65.2 nM.

GITRPTTVV gave a Kd (HLA-A*68:02; [7]) of 3150 nM, a Kd (HLA-A*02:03; [7]) of 795 nM and a Kd (HLA-A*02:01; [7]) of no less than 50700 nM. For the same sequence, the Kd (HLA-A*02:06; [7]) was 6130 nM and the Kd (HLA-A*02:02; [7]) was 14000 nM.

For SQCQAIHNV, the Kd (HLA-A*68:02; [6]) was 5790 nM, the Kd (HLA-A*02:03; [6]) was 254 nM and the Kd (HLA-A*02:01; [6]) was 972 nM. The Kd (HLA-A*02:06; [6]) was 132 nM and the Kd (HLA-A*02:02; [6]) was 770 nM.

SEVTTCFFL gave a Kd (HLA-B*40:01; [8]) of 12.7 nM and a Kd (HLA-B*18:01; [8]) of 48.5 nM.

In the case of VPWSKILAY, the Kd (HLA-B*54:01; [9]) is reported as 536 nM, the Kd (HLA-B*07:02; [9]) is reported as 447 nM and the Kd (HLA-B*35:01; [9]) is reported as 8.22 nM. The Kd (HLA-B*51:01; [9]) was 90.5 nM and the Kd (HLA-B*53:01; [9]) was 7.08 nM.

In the case of LMLASSAGH, the Kd (HLA-A*03:01; [5]) is reported as 559 nM.
